From publication PMC9482650, “Quantitative fragmentomics allow affinity mapping of interactomes” (Nature Communications, 2022)

T1: DLG3_1, Q92796
T1 sequence (Q92796 125-227, limits assumed, looked up): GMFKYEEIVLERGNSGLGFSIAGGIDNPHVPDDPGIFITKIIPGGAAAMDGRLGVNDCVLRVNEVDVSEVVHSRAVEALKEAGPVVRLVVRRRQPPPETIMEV

T2: NHERF3_4, Q5T2W1
T2 sequence (Q5T2W1 373-468, limits assumed, looked up): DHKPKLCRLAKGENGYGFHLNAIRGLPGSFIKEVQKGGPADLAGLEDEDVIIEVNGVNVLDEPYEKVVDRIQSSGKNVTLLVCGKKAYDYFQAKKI

T3: MPDZ_5, O75970
T3 sequence (O75970 695-796, limits assumed, looked up): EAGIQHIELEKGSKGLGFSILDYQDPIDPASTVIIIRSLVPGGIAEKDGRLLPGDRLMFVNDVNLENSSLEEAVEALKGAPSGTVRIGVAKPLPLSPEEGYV

T4: SNTB1, Q13884
T4 sequence (Q13884 107-205, limits assumed, looked up): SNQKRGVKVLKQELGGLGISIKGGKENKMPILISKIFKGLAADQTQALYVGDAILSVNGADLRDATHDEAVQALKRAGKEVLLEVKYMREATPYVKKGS

T5: NHERF3_3, Q5T2W1
T5 sequence (Q5T2W1 238-333, limits assumed, looked up): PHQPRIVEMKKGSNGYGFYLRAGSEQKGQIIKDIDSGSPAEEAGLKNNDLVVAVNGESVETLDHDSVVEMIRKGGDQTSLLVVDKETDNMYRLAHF

T6: RHPN1, Q8TCX5
T6 sequence (Q8TCX5 508-602, limits assumed, looked up): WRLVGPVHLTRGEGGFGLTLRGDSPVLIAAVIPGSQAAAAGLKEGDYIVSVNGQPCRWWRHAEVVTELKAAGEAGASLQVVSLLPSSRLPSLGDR

T7: DLG3_2, Q92796
T7 sequence (Q92796 221-321, limits assumed, looked up): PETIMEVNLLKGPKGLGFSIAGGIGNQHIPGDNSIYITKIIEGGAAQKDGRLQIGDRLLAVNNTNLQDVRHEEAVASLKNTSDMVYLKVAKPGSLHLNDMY

T8: LIN7A, O14910
T8 sequence (O14910 103-200, limits assumed, looked up): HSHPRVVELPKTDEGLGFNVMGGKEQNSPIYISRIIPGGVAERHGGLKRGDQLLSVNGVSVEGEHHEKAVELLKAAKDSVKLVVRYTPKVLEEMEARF

T9: HTRA3, P83110
T9 sequence (P83110 354-453, limits assumed, looked up): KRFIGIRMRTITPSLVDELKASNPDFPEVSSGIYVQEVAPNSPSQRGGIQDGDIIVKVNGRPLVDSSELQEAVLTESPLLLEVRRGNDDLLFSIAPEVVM

T10: PDZD2_2, O15018
T10 sequence (O15018 329-429, limits assumed, looked up): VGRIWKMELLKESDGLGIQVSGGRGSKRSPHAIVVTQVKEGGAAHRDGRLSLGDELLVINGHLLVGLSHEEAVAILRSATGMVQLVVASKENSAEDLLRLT

T11: GRIP1_7, Q9Y3R0
T11 sequence (Q9Y3R0 999-1096, limits assumed, looked up): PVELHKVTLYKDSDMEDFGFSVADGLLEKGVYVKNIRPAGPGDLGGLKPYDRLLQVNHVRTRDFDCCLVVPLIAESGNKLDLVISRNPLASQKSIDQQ


Assays:
Test in all cases: holdup assay
Design in all cases: key: below the threshold = too weak to quantify, mostly under pKd 3.1 to 4
Conditions in all cases: plain residues with an end cap or a label only (N-terminal biotin on a linker: ado-ado)
SCRIB_2, Q14160 = target: SCRIB_2, Q14160
Sequence of SCRIB_2, Q14160 (Q14160 857-960): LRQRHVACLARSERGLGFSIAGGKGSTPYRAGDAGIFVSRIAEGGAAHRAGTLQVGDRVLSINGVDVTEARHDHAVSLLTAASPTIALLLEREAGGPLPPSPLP

TJP1_2, Q07157 = target: TJP1_2, Q07157
Sequence of TJP1_2, Q07157 (Q07157 181-274): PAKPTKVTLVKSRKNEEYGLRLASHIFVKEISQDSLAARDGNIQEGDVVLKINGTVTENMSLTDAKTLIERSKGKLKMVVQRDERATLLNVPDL

DLG3_1, Q92796 = target: T1, DLG3_1, Q92796
Inadl_5, Q8NI35 = target: Inadl_5, Q8NI35
Sequence of Inadl_5, Q8NI35 (Q8NI35 673-780): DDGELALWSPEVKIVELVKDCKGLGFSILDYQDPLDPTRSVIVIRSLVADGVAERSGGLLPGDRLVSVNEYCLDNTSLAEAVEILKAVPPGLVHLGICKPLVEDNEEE

NHERF3_4, Q5T2W1 = target: T2, NHERF3_4, Q5T2W1
LAP2, Q96RT1 = target: LAP2, Q96RT1
Sequence of LAP2, Q96RT1 (Q96RT1 other isoform, or with tags, fused parts or gaps): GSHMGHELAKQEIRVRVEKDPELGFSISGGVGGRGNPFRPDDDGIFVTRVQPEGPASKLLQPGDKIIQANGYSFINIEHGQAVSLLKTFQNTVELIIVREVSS

MPDZ_5, O75970 = target: T3, MPDZ_5, O75970
SNTB1, Q13884 = target: T4, SNTB1, Q13884
NHERF3_3, Q5T2W1 = target: T5, NHERF3_3, Q5T2W1
MAGI2_6, Q86UL8 = target: MAGI2_6, Q86UL8
Sequence of MAGI2_6, Q86UL8 (Q86UL8 1141-1229): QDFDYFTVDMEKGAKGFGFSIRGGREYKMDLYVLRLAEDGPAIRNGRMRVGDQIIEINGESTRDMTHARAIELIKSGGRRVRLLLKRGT

Inadl_8, Q8NI35 = target: Inadl_8, Q8NI35
Sequence of Inadl_8, Q8NI35 (Q8NI35 1425-1530): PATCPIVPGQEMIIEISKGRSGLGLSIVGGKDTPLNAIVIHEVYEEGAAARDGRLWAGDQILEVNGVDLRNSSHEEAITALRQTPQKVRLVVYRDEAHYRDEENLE

GORASP1, Q9BQQ3 = target: GORASP1, Q9BQQ3
Sequence of GORASP1, Q9BQQ3 (Q9BQQ3 1-208): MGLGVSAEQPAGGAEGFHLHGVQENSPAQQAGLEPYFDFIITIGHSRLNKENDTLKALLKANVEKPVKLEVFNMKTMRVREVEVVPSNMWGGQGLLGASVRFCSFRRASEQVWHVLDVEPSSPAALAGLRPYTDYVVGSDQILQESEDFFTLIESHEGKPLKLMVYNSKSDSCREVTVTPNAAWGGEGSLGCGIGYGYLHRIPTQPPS

RHPN1, Q8TCX5 = target: T6, RHPN1, Q8TCX5
DLG3_2, Q92796 = target: T7, DLG3_2, Q92796
MAGI1_1, Q96QZ7 = target: MAGI1_1, Q96QZ7
Sequence of MAGI1_1, Q96QZ7 (Q96QZ7 1-106): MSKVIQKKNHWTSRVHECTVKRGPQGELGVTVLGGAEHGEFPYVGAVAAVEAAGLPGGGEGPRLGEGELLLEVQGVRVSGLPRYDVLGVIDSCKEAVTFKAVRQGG

LIN7A, O14910 = target: T8, LIN7A, O14910
HTRA3, P83110 = target: T9, HTRA3, P83110
PDZD2_2, O15018 = target: T10, PDZD2_2, O15018
GORASP2, Q9H8Y8 = target: GORASP2, Q9H8Y8
FRMPD2_2, Q68DX3 = target: FRMPD2_2, Q68DX3
Sequence of FRMPD2_2, Q68DX3 (Q68DX3 944-1038): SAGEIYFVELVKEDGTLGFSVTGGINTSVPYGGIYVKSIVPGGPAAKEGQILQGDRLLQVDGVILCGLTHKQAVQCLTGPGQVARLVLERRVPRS

CASK, O14936 = target: CASK, O14936
Sequence of CASK, O14936 (O14936 487-570): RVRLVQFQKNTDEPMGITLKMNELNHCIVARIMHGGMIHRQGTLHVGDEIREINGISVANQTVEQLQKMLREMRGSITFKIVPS

DLG4_1, P78352 = target: DLG4_1, P78352
Sequence of DLG4_1, P78352 (P78352 62-152): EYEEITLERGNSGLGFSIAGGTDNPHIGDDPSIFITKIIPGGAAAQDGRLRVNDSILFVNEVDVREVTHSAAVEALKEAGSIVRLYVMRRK

FRMPD2_3, Q68DX3 = target: FRMPD2_3, Q68DX3
Sequence of FRMPD2_3, Q68DX3 (Q68DX3 1073-1166): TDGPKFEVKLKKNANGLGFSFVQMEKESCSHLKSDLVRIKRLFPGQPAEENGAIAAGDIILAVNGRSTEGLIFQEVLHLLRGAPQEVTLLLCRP

GRID2IP_1, A4D2P6 = target: GRID2IP_1, A4D2P6
Sequence of GRID2IP_1, A4D2P6 (A4D2P6 1-87): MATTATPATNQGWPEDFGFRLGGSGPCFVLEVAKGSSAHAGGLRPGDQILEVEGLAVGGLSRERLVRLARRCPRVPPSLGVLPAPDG

FRMPD2_1, Q68DX3 = target: FRMPD2_1, Q68DX3
Sequence of FRMPD2_1, Q68DX3 (Q68DX3 770-861): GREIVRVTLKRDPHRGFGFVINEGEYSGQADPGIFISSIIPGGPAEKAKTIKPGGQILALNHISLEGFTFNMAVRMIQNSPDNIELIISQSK

GRIP1_7, Q9Y3R0 = target: T11, GRIP1_7, Q9Y3R0
MAGI3_2, Q5TCQ9 = target: MAGI3_2, Q5TCQ9
Sequence of MAGI3_2, Q5TCQ9 (Q5TCQ9 398-503): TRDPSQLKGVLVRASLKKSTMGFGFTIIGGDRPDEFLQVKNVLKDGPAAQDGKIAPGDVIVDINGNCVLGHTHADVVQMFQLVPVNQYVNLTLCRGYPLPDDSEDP

| pKd (SCRIB_2, Q14160) | pKd (TJP1_2, Q07157) | pKd (DLG3_1, Q92796) | pKd (Inadl_5, Q8NI35) | pKd (NHERF3_4, Q5T2W1) | pKd (LAP2, Q96RT1) | pKd (MPDZ_5, O75970) | pKd (SNTB1, Q13884) | pKd (NHERF3_3, Q5T2W1) | pKd (MAGI2_6, Q86UL8) | pKd (Inadl_8, Q8NI35) | pKd (GORASP1, Q9BQQ3) | pKd (RHPN1, Q8TCX5) | pKd (DLG3_2, Q92796) | pKd (MAGI1_1, Q96QZ7) | pKd (LIN7A, O14910) | pKd (HTRA3, P83110) | pKd (PDZD2_2, O15018) | pKd (GORASP2, Q9H8Y8) | pKd (FRMPD2_2, Q68DX3) | also measured | Binder |
| --- | --- | --- | --- | --- | --- | --- | --- | --- | --- | --- | --- | --- | --- | --- | --- | --- | --- | --- | --- | --- | --- |
| 3.49 | below the threshold | 3.61 | 3.52 | 5.4 | below the threshold | below the threshold | 4.23 | below the threshold | 4.08 | 3.62 | 3.59 | 3.93 | 3.73 | below the threshold | below the threshold | below the threshold | 3.57 | below the threshold | 3.5 | pKd (CASK, O14936): below the threshold; pKd (DLG4_1, P78352): 3.76; pKd (FRMPD2_3, Q68DX3): 3.5; pKd (GRID2IP_1, A4D2P6): below the threshold; pKd (FRMPD2_1, Q68DX3): 3.54; pKd (GRIP1_7, Q9Y3R0): 3.56; pKd (MAGI3_2, Q5TCQ9): 4.08 | GIKKITSTAL [RPS6KA3, P51812] |
| below the threshold | below the threshold | below the threshold | below the threshold | below the threshold | below the threshold | below the threshold | below the threshold | below the threshold | below the threshold | 4.22 | below the threshold | below the threshold | 4.03 | below the threshold | below the threshold | below the threshold | 3.98 | below the threshold | below the threshold | pKd (CASK, O14936): below the threshold; pKd (DLG4_1, P78352): below the threshold; pKd (FRMPD2_3, Q68DX3): below the threshold; pKd (GRID2IP_1, A4D2P6): below the threshold; pKd (FRMPD2_1, Q68DX3): below the threshold; pKd (GRIP1_7, Q9Y3R0): below the threshold; pKd (MAGI3_2, Q5TCQ9): below the threshold | NNNVVKVDSV [MTNR1A, P48039] |
| 3.49 | below the threshold | 3.5 | below the threshold | 3.75 | 3.56 | below the threshold | 3.51 | below the threshold | below the threshold | below the threshold | 3.58 | 3.81 | 4.19 | 3.59 | below the threshold | 3.64 | 3.63 | 4.18 | below the threshold | pKd (CASK, O14936): below the threshold; pKd (DLG4_1, P78352): below the threshold; pKd (FRMPD2_3, Q68DX3): 3.49; pKd (GRID2IP_1, A4D2P6): below the threshold; pKd (FRMPD2_1, Q68DX3): 3.56; pKd (GRIP1_7, Q9Y3R0): below the threshold; pKd (MAGI3_2, Q5TCQ9): 3.62 | NVYGIESVKI [GRIA2, P42262] |
| 3.76 | below the threshold | 3.55 | below the threshold | below the threshold | below the threshold | below the threshold | 3.48 | below the threshold | below the threshold | 3.61 | below the threshold | 4.11 | 4.6 | below the threshold | below the threshold | below the threshold | 4.23 | 3.55 | below the threshold | pKd (CASK, O14936): below the threshold; pKd (DLG4_1, P78352): 4.06; pKd (FRMPD2_3, Q68DX3): below the threshold; pKd (GRID2IP_1, A4D2P6): below the threshold; pKd (FRMPD2_1, Q68DX3): below the threshold; pKd (GRIP1_7, Q9Y3R0): below the threshold; pKd (MAGI3_2, Q5TCQ9): 5.1 | PSHPRLQTHV [KIRREL2, Q6UWL6] |
